Data published in publication PMC11360561.

Assays:
[1] = molecular target: Human bufavirus 1 (BuV1) VP2, assembled as virus-like particles (human bufavirus 1); experiment: cryo-EM structure; purified BuV1 VP2 VLPs dialyzed to pH 7.4 in universal buffer (20 mM HEPES, 20 mM MES, 20 mM sodium acetate, 150 mM NaCl); icosahedral reconstruction
[2] = molecular target: Human bufavirus 1 (BuV1) VP2, assembled as virus-like particles (human bufavirus 1); experiment: cryo-EM structure; purified BuV1 VP2 VLPs co-incubated with 6SLN (or 3SLN) glycan in 10-fold molar excess of the potential binding sites; icosahedral reconstruction, 60-mer model
[3] = molecular target: Human bufavirus 1 (BuV1) VP2, assembled as virus-like particles (human bufavirus 1); experiment: cryo-EM structure; purified BuV1 VP2 VLPs dialyzed to pH 4.0 in universal buffer (20 mM HEPES, 20 mM MES, 20 mM sodium acetate, 150 mM NaCl); icosahedral reconstruction
[4] = molecular target: Human bufavirus 1 (BuV1) VP2, assembled as virus-like particles (human bufavirus 1); experiment: cryo-EM structure; purified BuV1 VP2 VLPs dialyzed to pH 2.6 in 50 mM glycine HCl, 150 mM NaCl; icosahedral reconstruction; full and half (broken) capsids seen in micrographs

Measured: stoichiometry N

Human bufavirus 1 (BuV1) VP2, assembled as virus-like particles (natural protein)
60: all assays above
